The record followed here is article PMC8674358.

In assay [1] the target is IRE1-KR-0P: human IRE1α kinase-endoribonuclease module (residues G547-L977), unphosphorylated (human) (UniProt O75460). The assay can be described thus: cross-linking; 1 μg IRE1-KR (~0.8 μM) or various concentrations in RNA cleavage buffer (20 mM HEPES pH 7.5, 50 mM K acetate, 1 mM Mg acetate, 0.05% Triton X-100), 250 μM DSS, 1 h on ice; SDS-PAGE and IRE1α immunoblot; also with CRUK-3 (5 µM), which augmented KR-0P dimerization and oligomerization. (In general: Immunoblotting shows a protein as a band on a membrane.)

For assay [2], the target named is IRE1-KR-3P: human IRE1α kinase-endoribonuclease module (residues G547-L977), fully phosphorylated (human) (UniProt O75460). The description is as above.

“And” between values parts separate entries of the source, which are not always exact repeats. Identical values can stand only once.

On to “IRE1-KR-0P: human IRE1α kinase-endoribonuclease module (residues G547-L977), unphosphorylated (from UniProt O75460 547-977) (domain or fragment)”, for which, in assay [1], the stoichiometry N amounted to 2.
Consider “IRE1-KR-3P: human IRE1α kinase-endoribonuclease module (residues G547-L977), fully phosphorylated (from UniProt O75460 547-977) (domain or fragment)”, for which the stoichiometry N in assay [2] was 2 and 4 and 6.

The stoichiometry N is a count of units in the complex or per binding partner.
